T1: IL-7 (UniProt P13232 26-177)
T1 sequence (looked up): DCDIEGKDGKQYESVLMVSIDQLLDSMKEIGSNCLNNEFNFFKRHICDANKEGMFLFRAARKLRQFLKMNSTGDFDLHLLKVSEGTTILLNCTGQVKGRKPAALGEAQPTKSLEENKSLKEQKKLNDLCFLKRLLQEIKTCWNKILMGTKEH

T2: IL-4 (UniProt P05112 25-153)
T2 sequence (looked up): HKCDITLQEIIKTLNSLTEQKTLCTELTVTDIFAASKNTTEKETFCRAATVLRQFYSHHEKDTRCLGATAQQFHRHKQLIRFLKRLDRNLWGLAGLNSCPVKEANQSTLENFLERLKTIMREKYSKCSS


Tests used:
[1] = target: T3, recombinant human IL-21 (human, UniProt Q9HBE4 30-162, limits assumed); test: cell-based or functional assay
T3 sequence (Q9HBE4 30-162 limits assumed, form in doubt): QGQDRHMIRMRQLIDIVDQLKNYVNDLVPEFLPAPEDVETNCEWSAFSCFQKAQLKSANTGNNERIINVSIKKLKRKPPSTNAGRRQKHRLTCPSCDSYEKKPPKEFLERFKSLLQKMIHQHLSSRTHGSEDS

[2] = target: T4, recombinant cynomolgus monkey IL-21 (cynomolgus monkey (Macaca fascicularis), UniProt Q9HBE4 30-162 (human entry), limits assumed); test: cell-based or functional assay
T4 sequence (Q9HBE4 other isoform, or with tags, fused parts or gaps limits assumed): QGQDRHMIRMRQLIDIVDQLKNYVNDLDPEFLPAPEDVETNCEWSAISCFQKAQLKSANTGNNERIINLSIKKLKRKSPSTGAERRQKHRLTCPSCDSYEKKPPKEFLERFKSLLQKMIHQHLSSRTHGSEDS

[3] = target: IL-21 (species not stated in the assay) (Homo sapiens (Human), UniProt Q9HBE4 25-162, Biotinylated in the competition ELISA of paragraph 259 (sites not given); unlabelled in the other results.); test: cell-based or functional assay
Sequence of IL-21 (species not stated in the assay) (Q9HBE4 25-162 limits assumed): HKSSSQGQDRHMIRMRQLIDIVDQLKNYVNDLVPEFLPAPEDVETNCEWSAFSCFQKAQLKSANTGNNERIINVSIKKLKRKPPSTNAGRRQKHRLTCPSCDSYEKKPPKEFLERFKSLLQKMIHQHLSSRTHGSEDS

[4] = target: T3, recombinant human IL-21; test: cell-based or functional assay; remark: listed apart in the source
[5] = target: T4, recombinant cynomolgus monkey IL-21; test: cell-based or functional assay; remark: listed apart in the source
[6] = target: T3, recombinant human IL-21; test: method not stated for this clone (Table 2, column Kd hu)
[7] = target: IL-2 (UniProt P60568 21-153); test: ELISA on plate-coated cytokine (2 µg/ml)
Sequence of IL-2 (P60568 21-153 limits assumed): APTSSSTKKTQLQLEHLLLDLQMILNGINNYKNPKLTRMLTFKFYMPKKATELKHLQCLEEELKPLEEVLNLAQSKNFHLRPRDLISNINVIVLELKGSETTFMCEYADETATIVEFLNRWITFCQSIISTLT
Procedure: (§1) ELISA was used to test cross reactivity of lead clones. Cytokines tested include 11-2, IL-4, IL-7, IL-9, and IL-15. Maxisorp ELISA plate (NUNC) was coated with 2 μg/ml of different cytokines in PBS at 4° C. overnight. The plate was then blocked with 3% BSA in PBST (PBS+0.1% Tween) at room temperature for one hour. Purified lead clone IgGs were serially diluted in PBST+3% BSA and the mixture was then added to each ELISA plate well and further incubated at room temperature for half an hour. After washing, secondary antibody-HRP was added to each well for 1 hour. Wells were washed first with PBST and then with PBS and the TMB solution from Pierce was added to detect the secondary antibody. After 5′ the reaction was stopped by the addition of 1N sulfuric acid. The plates were then read in an ELISA reader at 450 nm to detect the binding.

[8] = target: T1, IL-7; test: ELISA on plate-coated cytokine (2 µg/ml)
Procedure: as §1

[9] = target: T2, IL-4; test: ELISA on plate-coated cytokine (2 µg/ml)
Procedure: as §1

[10] = target: T3, recombinant human IL-21; test: cell-based or functional assay; remark: listed apart in the source
[11] = target: T4, recombinant cynomolgus monkey IL-21; test: cell-based or functional assay; remark: listed apart in the source
[12] = target: T3, recombinant human IL-21; test: cell-based or functional assay; remark: listed apart in the source
[13] = target: T4, recombinant cynomolgus monkey IL-21; test: cell-based or functional assay; remark: listed apart in the source
[14] = target: IL-15 (UniProt P40933 49-162); test: ELISA on plate-coated cytokine (2 µg/ml)
Sequence of IL-15 (P40933 49-162 limits assumed): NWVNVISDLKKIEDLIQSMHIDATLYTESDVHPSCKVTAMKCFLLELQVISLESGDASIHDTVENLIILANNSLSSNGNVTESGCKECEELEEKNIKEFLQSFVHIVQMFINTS
Procedure: as §1

Row | Binder | IC50 in pSTAT3 assay (human PBMCs, 20 pM IL-21) [1] | IC50 in pSTAT3 assay (human PBMCs, 20 pM IL-21) [2] | maximal inhibition in pSTAT3 assay [3] | IC50 in PC differentiation assay (2 nM IL-21) [4] | IC50 in PC differentiation assay (2 nM IL-21) [5] | Kd [6] | binding result [7] | binding result [8] | binding result [9] | IC50 in NK-92 cell assay (IFNγ, 200 pM IL-21) [10] | IC50 in NK-92 cell assay (IFNγ, 200 pM IL-21) [11] | IC50 of IL-21-induced proliferation of human naive CD4+ T cells (ATP, day 4) [12] | inhibition of IgG production by human B cells [12] | inhibition of IgG production by human B cells [13] | binding result [14]
1 | 9F11-4 (antibody, IgG1, V domains shown) VH: EVQLVESGGGLVQPGGSLRLSCAASGFTFSDAWMDWVRQAPGKGLEWVAEIRSEADNHPTYYAESVKGRFTISRDDSKNSLYLQMNSLKTEDTAVYYCTEYDYEGFVHWGQGTLVTVSS VL: DIVMTQTPLSLSVTPGQPASISCRASKSVSTYGYSYMHWYLQKPGQPPQLLIYLASNLESGVPDRFSGSGSGTDFTLKISRVEAEDVGVYYCQHSRELPLTFGQGTKLEIK | 12.1 pM | 52.2 pM | 100% |  |  |  |  |  |  |  |  |  |  |  | 
2 | 9F11-6 (antibody, IgG1, V domains shown) VH: EVQLVESGGGLVQPGGSLRLSCAASGFTFSDAWMDWVRQAPGKGLEWVAEIRSEADNHPTYYAESVKGRFTISRDDSKNSVYLQMNSLKTEDTAVYYCTEYDYEGFVHWGQGTLVTVSS VL: DIVMTQTPLSLSVTPGQPASISCRASKSVSTYGYSYMHWYLQKPGQPPQLLIYLASNLESGVPDRFSGSGSGTDFTLKISRVEAEDVGVYYCQHSRELPLTFGQGTKLEIK | 13.2 pM | 50.8 pM | 100% |  |  |  |  |  |  |  |  |  |  |  | 
3 | 9F11-11 (antibody, IgG1, V domains shown) VH: EVQLVESGGGLVQPGGSLRLSCAASGFTFSDAWMDWVRQAPGKGLEWVAEIRSEADNHPTYYAESVKGRFTISRDDSKNSLYLQMNSLKTEDTAVYYCTEYDYEGFVHWGQGTLVTVSS VL: DIVLTQTPLSLSVTPGQPASISCRASKSVSTYGYSYMHWYLQKPGQPPQLLIYLASNLESGVPDRFSGSGSGTDFTLKISRVEAEDVGVYYCQHSRELPLTFGQGTKLEIK | 13.6 pM | 45.9 pM | 100% |  |  |  |  |  |  |  |  |  |  |  | 
4 | K44VHa6-N56Q (antibody, IgG1, V domains shown) VH: QVQLVQSGAEVKKPGASVKVSCKASGYTFTDYWMHWVRQAPGQGLEWMGTIDPSDQYTIYSQNFKGRVTMTVDESTSTVYMELSSLRSEDTAVYYCARYGFAMDYWGQGTLVTVSS VL: DIQLTQSPSSLSASVGDRVTITCRASQDISNFLNWYQQKPGKAVKLLIYYTSRLHSGVPSRFSGSGSGTDYTLTISSLQPEDFATYYCQQGHTLPRTFGGGTKVEIKR | 5.5 pM | 9.75 pM | 100% | 573 pM | 659 pM | 0.245 pM | no binding | no binding | no binding | 54.8 pM | 60.3 pM |  |  |  | 
5 | K2Ha-N56Q (antibody, human IgG1, kappa, V domains shown) VH: QVQLVQSGAEVKKPGASVKVSCKASGYTFTDYWMHWVRQAPGQGLEWMGTIDPSDQYTIYSQNFKGRVTMTRDTSTSTVYMELSSLRSEDTAVYYCARYGFAMDYWGQGTLVTVSS VL: DIQLTQSPSSLSASVGDRVTITCRASQDISNFLNWYQQKPGKAVKLLIYYTSRLHSGVPSRFSGSGSGTDYTLTISSLQPEDFATYFCQQGHTLPRTFGGGTKVEIKR | 18.7 pM | 15.6 pM | 100% | 618 pM | 1320 pM | 0.403 pM | no binding | no binding | no binding | 99 pM | 83.4 pM |  |  |  | 
6 | murine monoclonal antibody 9H10 (antibody, V domains shown, also called 9H10.1) VH: EVQLQQFGAEVVKPGASVKMSCKASGYTFTDYNMNWVKQSHEKSLEWIGDIHPKFHSTNYNQKFKGKATLTIDTSSSTAYMELRNLTSEDTAVYYCARVGNYVYFVMDYWGQGTSVTVSS VL: SIVMTQTPKFLLVSAGDRVTITCKASQSVSNDVAWYQQKPGQSPKLLIYYASNRYTGVPDRFSGSGYGTDFTFTISTVQAEDLAVYFCQQDYTSPWTFGGGTKLEIK | 328 pM | 160 pM | 100% | 116000 pM | 29800 pM | 108 pM | no binding | no binding | no binding | 20.2 nM | 3.43 nM |  |  |  | 
7 | murine monoclonal antibody 19E3 (antibody, V domains shown, also called 19E3.1) VH: QVQLQQPGSELVMPGASVKMSCKASGYIFTDYWMHWVKQRPGQGLEWIGTIDPSDNYTIYSQNFKGKATLTVDESSSTAYMLLSSLTSEDSAVYFCARYGFAMDYWGQGTSVTVSS VL: DIQLTQTTSSLSASLGDRVTISCRASQDISNFLNWYQQTPDGTVKLLIYYTSRLHSGVPSRFSGSGSGTDYSLTISNLEQEDIATYFCQQGHTLPRTFGGGTKLEIK | 3.15 pM | 5.99 pM | 100% | 1530 pM | 775 pM |  | no binding | no binding | no binding | 41 pM | 37 pM | 61 pM | > 99% | > 99% | 
8 | murine monoclonal antibody 8B6 (antibody, V domains shown, also called 8B6.1) VH: EVQLVESGGGSVKPGGSLKLSCAASGLTFSHYYMYWVRQTPEKRLEWVAIISDGGDYTHYSDSVKGRFTISRDNAKNNLYLQMSSLQSEDTAMYYCAGDYGYGYEGWFAYWGQGTLVTVST VL: DIVMTQSQKFMSTSVGDRVSVTCKASQNVDTYVAWYQQKPGQSPKALIYSTSYRYSGVPDRFTGSGSGTDFTLTISNVQSEDLAEYFCQQYNSYPWTFGGGTKLEIK | 115 pM | 228 pM | 100% | > 200000 pM | 8900 pM |  | no binding | no binding | no binding | 944 pM | 771 pM |  |  |  | no binding

— patent US20200164069A1 (BOSTON PHARMACEUTICALS, published 2020)
